Experimental data reported in patent publication US20160002357A1 (Pfizer, published 2016).
Changes are numbered by the printed parent chain.

B1: anti-P-cadherin scFv 153 alanine-mutant L1.7-Ala (scFv, V domains shown)
VH: EVQLVQSGAEVKKPGASVKVSCKASGYTFTSYGISWVRQAPGQGLEWMGWISAYNGNTNYAQKLQGRVTMTTDTSTSTAYMELRSLRSDDTAVYYCATIDTANAFGIWGQGTMVTVSS
VL: QSVLTQPPSVSAAPGQKVTISCSGSSSNAGNNYVSWYQQLPGTAPKLLIYDNNKRPSGIPDRFSGSKSGTSATLGITGLQTGDEADYYCGTWDSSLSGVVFGGGTKLTVL
notes: scFv on phage
B2: anti-P-cadherin scFv 153 alanine-mutant L1.2-Ala (scFv, V domains shown)
VH: B1 VH
VL: B1 VL with G24A, A29I
notes: scFv on phage
B3: anti-P-cadherin scFv 153 alanine-mutant L1.6-Ala (scFv, V domains shown)
VH: B1 VH
VL: B1 VL with N28A, A29I
notes: scFv on phage
B4: anti-P-cadherin scFv 153 alanine-mutant L1.3-Ala (scFv, V domains shown)
VH: B1 VH
VL: B1 VL with S25A, A29I
notes: scFv on phage
B5: anti-P-cadherin scFv 153 alanine-mutant L1.10-Ala (scFv, V domains shown)
VH: B1 VH
VL: B1 VL with A29I, N32A
notes: scFv on phage
B6: anti-P-cadherin scFv 153 alanine-mutant L1.9-Ala (scFv, V domains shown)
VH: B1 VH
VL: B1 VL with A29I, N31A
notes: scFv on phage
B7: anti-P-cadherin scFv 153 alanine-mutant L1.1-Ala (scFv, V domains shown)
VH: B1 VH
VL: B1 VL with S23A, A29I
notes: scFv on phage
B8: anti-P-cadherin scFv 153 alanine-mutant L1.8-Ala (scFv, V domains shown)
VH: B1 VH
VL: B1 VL with A29I, G30A
notes: scFv on phage
B9: anti-P-cadherin scFv 153 alanine-mutant L1.4-Ala (scFv, V domains shown)
VH: B1 VH
VL: B1 VL with S26A, A29I
notes: scFv on phage
B10: anti-P-cadherin scFv 153 alanine-mutant L1.5-Ala (scFv, V domains shown)
VH: B1 VH
VL: B1 VL with S27A, A29I
notes: scFv on phage
B11: anti-P-cadherin scFv 153 alanine-mutant H2.5-Ala (scFv, V domains shown)
VH: B1 VH with Y54A
VL: B1 VL with A29I
notes: scFv on phage
B12: anti-P-cadherin scFv 153 alanine-mutant H2.11-Ala (scFv, V domains shown)
VH: B1 VH with Y60A
VL: B1 VL with A29I
notes: scFv on phage
B13: anti-P-cadherin scFv 153 alanine-mutant H2.9-Ala (scFv, V domains shown)
VH: B1 VH with T58A
VL: B1 VL with A29I
notes: scFv on phage
B14: anti-P-cadherin scFv 153 alanine-mutant H3.9-Ala (scFv, V domains shown)
VH: B1 VH with I107A
VL: B1 VL with A29I
notes: scFv on phage
B15: anti-P-cadherin scFv 153 alanine-mutant H2.7-Ala (scFv, V domains shown)
VH: B1 VH with G56A
VL: B1 VL with A29I
notes: scFv on phage
B16: anti-P-cadherin scFv 153 alanine-mutant H2.15-Ala (scFv, V domains shown)
VH: B1 VH with L64A
VL: B1 VL with A29I
notes: scFv on phage
B17: anti-P-cadherin scFv 153 alanine-mutant H2.17-Ala (scFv, V domains shown)
VH: B1 VH with G66A
VL: B1 VL with A29I
notes: scFv on phage
B18: anti-P-cadherin scFv 153 alanine-mutant H2.8-Ala (scFv, V domains shown)
VH: B1 VH with N57A
VL: B1 VL with A29I
notes: scFv on phage
B19: anti-P-cadherin scFv 153 alanine-mutant H3.8-Ala (scFv, V domains shown)
VH: B1 VH with G106A
VL: B1 VL with A29I
notes: scFv on phage
B20: anti-P-cadherin scFv 153 alanine-mutant H2.16-Ala (scFv, V domains shown)
VH: B1 VH with Q65A
VL: B1 VL with A29I
notes: scFv on phage
B21: anti-P-cadherin scFv 153 alanine-mutant H2.14-Ala (scFv, V domains shown)
VH: B1 VH with K63A
VL: B1 VL with A29I
notes: scFv on phage
B22: anti-P-cadherin scFv 153 alanine-mutant H3.5-Ala (scFv, V domains shown)
VH: B1 VH with N103A
VL: B1 VL with A29I
notes: scFv on phage
B23: anti-P-cadherin scFv 153 alanine-mutant H3.2-Ala (scFv, V domains shown)
VH: B1 VH with D100A
VL: B1 VL with A29I
notes: scFv on phage
B24: anti-P-cadherin scFv 153 alanine-mutant H2.6-Ala (scFv, V domains shown)
VH: B1 VH with N55A
VL: B1 VL with A29I
notes: scFv on phage
B25: anti-P-cadherin scFv 153 alanine-mutant H3.7-Ala (scFv, V domains shown)
VH: B1 VH with F105A
VL: B1 VL with A29I
notes: scFv on phage
B26: anti-P-cadherin scFv 153 alanine-mutant H3.3-Ala (scFv, V domains shown)
VH: B1 VH with T101A
VL: B1 VL with A29I
notes: scFv on phage
B27: anti-P-cadherin scFv 153 alanine-mutant H2.10-Ala (scFv, V domains shown)
VH: B1 VH with N59A
VL: B1 VL with A29I
notes: scFv on phage
B28: anti-P-cadherin scFv 153 alanine-mutant H2.13-Ala (scFv, V domains shown)
VH: B1 VH with Q62A
VL: B1 VL with A29I
notes: scFv on phage
B29: anti-P-cadherin scFv 153 alanine-mutant H3.1-Ala (scFv, V domains shown)
VH: B1 VH with I99A
VL: B1 VL with A29I
notes: scFv on phage

biological target: T1, P-cadherin-ECD1-3-Fc protein (human P-cadherin-Fc) (human, UniProt P22223 108-440); experiment: phage scFv ELISA, coated P-cadherin-ECD1-3-Fc
T1 construct: Construct was expressed with signal peptide and pro-peptide (PACE co-transfected to process the propeptide); not shown: hinge and CH2 and CH3 domains of human IgG1
Method: ScFvs may be expressed on the surface of a phage particle. To prepare phage expressing scFv on their surface, 96-deep well plates containing 1 mL 2× TY media with 2% glucose/100 μg/mL ampicillin were inoculated with 0.5-1 μL from thawed glycerol stocks (one clone per well) using the QPix™2 Colony picker (Molecular Devices, Sunnyvale Calif.) and grown at 37° C. (900 rpm) for ˜4 hours. Next, 5 μL of a 1:29 dilution of helper phage (8.3×10¹³ pfu) was added and the plates and incubated for a further 30 minutes at 37° C. with no shaking then 1 hour at 300 rpm. Plates were centrifuged and the media was replaced with a kanamycin/non-glucose containing media (2× TY with 50 μg/mL kanamycin and 100 μg/mL ampicillin). Plates were grown overnight at 25° C. (900 rpm), and phage were harvested in the supernatant following centrifugation.
(§1) P-cadherin-ECD1-3-Fc protein or negative control protein was coated overnight at 4° C. on 96-well Nunc Maxisorp® plates (Thermo Fisher Scientific, Madison, Conn.) at a concentration of 2 μg/mL in PBS+Ca²⁺ and Mg²⁺. Plates were washed three times using PBS+Ca²⁺ and Mg²⁺ and blocked for 1 hour at room temperature in 3% milk/PBS+Ca²⁺ and Mg²⁺. Phage samples prepared as described above were added to the blocked plates for 1 hour at room temperature. Plates were washed three times with PBS+Ca²⁺ and Mg²⁺ prior to the addition of secondary antibody (anti M13-HRP 1:2000, GE Healthcare, Piscataway, N.J.). Plates were incubated for a further 1 hour at room temperature and washed six times with PBS+Ca²⁺ and Mg²⁺. Signal was developed using TMB (SurModics, Eden Prairie, Minn.), the reaction stopped with H₂SO₄ and the absorbance read at 450 nm on an EnVision® plate reader (Perkin Elmer, Waltham, Mass.).

T1 sequence (P22223 108-440): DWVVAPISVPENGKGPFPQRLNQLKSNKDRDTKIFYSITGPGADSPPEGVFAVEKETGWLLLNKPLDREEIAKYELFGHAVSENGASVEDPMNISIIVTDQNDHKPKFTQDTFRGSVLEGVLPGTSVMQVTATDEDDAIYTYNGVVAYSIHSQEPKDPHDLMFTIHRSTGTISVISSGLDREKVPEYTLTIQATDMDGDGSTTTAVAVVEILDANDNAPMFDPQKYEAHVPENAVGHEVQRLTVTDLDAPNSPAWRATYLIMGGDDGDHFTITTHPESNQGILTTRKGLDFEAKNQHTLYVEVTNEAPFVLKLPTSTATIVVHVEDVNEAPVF

Binder	% of binding of Clone #153 to human P-cadherin-Fc [%]	Human P-cadherin-Fc binding (OD450)	Z Score
B1	108	1.42	0.2
B2	97	1.28	-0.1
B3	88	1.16	-0.3
B4	165	2.19	1.4
B5	137	1.81	0.8
B6	129	1.71	0.6
B7	166	2.19	1.4
B8	75	1	-0.5
B9	175	2.31	1.6
B10	129	1.7	0.6

biological target: T1, P-cadherin-ECD1-3-Fc protein (human …); experiment: phage scFv ELISA, coated P-cadherin-ECD1-3-Fc; remark: another data set of the same source
Method: as §1

Binder	% of binding of Clone #153 to human P-cadherin-Fc [%]	Human P-cadherin-Fc binding (OD450)	Z Score
B11	34	0.45	-1.4
B12	163	2.15	1.3
B13	154	2.03	1.1
B14	61	0.8	-0.8
B15	114	1.5	0.3
B16	101	1.34	0
B17	162	2.14	1.3
B18	162	2.14	1.3
B19	103	1.36	0.1
B20	68	0.9	-0.7
B21	117	1.54	0.4
B22	58	0.77	-0.9
B23	168	2.22	1.4
B24	80	1.06	-0.4
B25	23	0.31	-1.6
B26	171	2.26	1.5
B27	172	2.27	1.5
B28	152	2.01	1.1
B29	13	0.17	-1.8
